Experiments:
[1] = target: T1, gastrin-releasing peptide receptor (GRPR) (UniProt P30550 1-384, limits assumed); test: Scatchard plot experiments, GRPR on cancer cell lines
T1 construct: whole, on cells; Endogenous receptor on PC3 and H441 cells, xenograft tumors or PC3 cell lysate; the cell lines are human; also called GRP receptor

[2] = target: T1, gastrin-releasing peptide receptor …; test: Scatchard plot from absorbance-based assay on wells of PC3 cell lysate; Kd of this variant not given

T1 sequence (P30550 whole entry): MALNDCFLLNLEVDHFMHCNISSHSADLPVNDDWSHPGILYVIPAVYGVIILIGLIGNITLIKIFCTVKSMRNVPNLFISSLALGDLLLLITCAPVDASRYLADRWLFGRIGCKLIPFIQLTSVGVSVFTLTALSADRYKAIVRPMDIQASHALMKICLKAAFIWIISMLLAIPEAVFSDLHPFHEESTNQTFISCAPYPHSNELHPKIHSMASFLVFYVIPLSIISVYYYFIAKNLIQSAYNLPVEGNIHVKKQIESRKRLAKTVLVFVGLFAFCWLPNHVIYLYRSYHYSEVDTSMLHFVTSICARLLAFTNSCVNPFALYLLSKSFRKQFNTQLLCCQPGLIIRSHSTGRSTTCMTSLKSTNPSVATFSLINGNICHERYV

Row | binding result [1] | binding result [2] | Binder
1 | binds | – | ProCA1.B10 (designed binder) RDSGTVWGALGHGIELNIPNFQMTDDIDEVRWERGSTLVAEFKRKMKPFLKSGGSGGGNQWAVGHLMGGSGGAFEIDANGDLDIKNLTRDDSGTYNVTVYSTNGTRILNKALDLRILE
2 | – | binds | ProCA1.G10 (designed binder) RDSGTVWGALGHGIELNIPNFQMTDDIDEVRWERGSTLVAEFKRKMKPFLKSGGSGGGNHWAVGHLMGGSGGAFEIDANGDLDIKNLTRDDSGTYNVTVYSTNGTRILNKALDLRILE

From patent US9956304 (GEORGIA STATE UNIVERSITY RESEARCH FOUNDATION, dated 2018)
